Measurements reported in the supplement of paper PMC9112550, “Optimization of the antimicrobial peptide Bac7 by deep mutational scanning” (BMC Biology, 2022).
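Note: peptides expressed intracellularly from a pBAD plasmid library in pooled LB shake-flask culture, induced with 0.3% L-arabinose, DNA abundance read by NGS, three biological replicates, DESeq2 with apeglm shrinkage.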

These sequences were tested on Escherichia coli TOP10 (assay: shrunken log2 fold change of peptide-encoding DNA abundance (4.5 h post-induction vs induction); higher = less antimicrobial activity (less host growth inhibition)). Details: time post-induction: 4.5 h; library: site-saturation at positions 5, 18, 19, 20.
With RRIRSRPPRLPRPRPRPGPRPRP the “shrunken log2 fold change” value was 0.659. For RRIRSRPPRLPRPRPRPGQCPRP, the “shrunken log2 fold change” value was 0.0202. For RRIRSRPPRLPRPRPRPGRCPRP, the “shrunken log2 fold change” value was 0.247. In the case of RRIRSRPPRLPRPRPRPGWSPRP, the “shrunken log2 fold change” value is reported as 0.334. RRIRSRPPRLPRPRPRPGYFPRP was tested, and the “shrunken log2 fold change” value was -0.335. With RRIRSRPPRLPRPRPRPGYNPRP the “shrunken log2 fold change” value was -0.846. In the case of RRIRSRPPRLPRPRPRPHAFPRP, the “shrunken log2 fold change” value is reported as -1.44. With RRIRSRPPRLPRPRPRPHCHPRP the “shrunken log2 fold change” value was -0.783. In the case of RRIRSRPPRLPRPRPRPHDQPRP, the “shrunken log2 fold change” value is reported as 0.276. RRIRSRPPRLPRPRPRPHEIPRP was tested, and the “shrunken log2 fold change” value was -0.346. In the case of RRIRSRPPRLPRPRPRPHEMPRP, the “shrunken log2 fold change” value is reported as 0.0637. In the case of RRIRSRPPRLPRPRPRPHFIPRP, the “shrunken log2 fold change” value is reported as -0.344. In the case of RRIRSRPPRLPRPRPRPHFWPRP, the “shrunken log2 fold change” value is reported as 0.0758. In the case of RRIRSRPPRLPRPRPRPHGMPRP, the “shrunken log2 fold change” value is reported as -0.21. With RRIRSRPPRLPRPRPRPHKRPRP the “shrunken log2 fold change” value was 0.0245. In the case of RRIRSRPPRLPRPRPRPHKYPRP, the “shrunken log2 fold change” value is reported as -0.377. In the case of RRIRSRPPRLPRPRPRPHMAPRP, the “shrunken log2 fold change” value is reported as -0.361. With RRIRSRPPRLPRPRPRPHMEPRP the “shrunken log2 fold change” value was -0.376. For RRIRSRPPRLPRPRPRPHPNPRP, the “shrunken log2 fold change” value was -0.239. In the case of RRIRSRPPRLPRPRPRPHPYPRP, the “shrunken log2 fold change” value is reported as -0.807. With RRIRSRPPRLPRPRPRPHQIPRP the “shrunken log2 fold change” value was 0.0975. RRIRSRPPRLPRPRPRPHQVPRP was tested, and the “shrunken log2 fold change” value was -0.0813. In the case of RRIRSRPPRLPRPRPRPHRQPRP, the “shrunken log2 fold change” value is reported as 0.114. RRIRSRPPRLPRPRPRPHSIPRP was tested, and the “shrunken log2 fold change” value was -0.248. For RRIRSRPPRLPRPRPRPHTDPRP, the “shrunken log2 fold change” value was -0.216. In the case of RRIRSRPPRLPRPRPRPHTNPRP, the “shrunken log2 fold change” value is reported as -0.335. With RRIRSRPPRLPRPRPRPHVIPRP the “shrunken log2 fold change” value was -0.6. RRIRSRPPRLPRPRPRPHVWPRP was tested, and the “shrunken log2 fold change” value was 0.0587. For RRIRSRPPRLPRPRPRPHYHPRP, the “shrunken log2 fold change” value was -0.696. With RRIRSRPPRLPRPRPRPHYLPRP the “shrunken log2 fold change” value was -0.403. In the case of RRIRSRPPRLPRPRPRPHYWPRP, the “shrunken log2 fold change” value is reported as -0.519. For RRIRSRPPRLPRPRPRPIAIPRP, the “shrunken log2 fold change” value was -0.0732. In the case of RRIRSRPPRLPRPRPRPIDPPRP, the “shrunken log2 fold change” value is reported as 0.017. With RRIRSRPPRLPRPRPRPIDSPRP the “shrunken log2 fold change” value was -0.0241. RRIRSRPPRLPRPRPRPIFVPRP was tested, and the “shrunken log2 fold change” value was 0.0197. In the case of RRIRSRPPRLPRPRPRPIHQPRP, the “shrunken log2 fold change” value is reported as -0.114. With RRIRSRPPRLPRPRPRPIICPRP the “shrunken log2 fold change” value was -0.258. With RRIRSRPPRLPRPRPRPIKPPRP the “shrunken log2 fold change” value was 0.0213. In the case of RRIRSRPPRLPRPRPRPILFPRP, the “shrunken log2 fold change” value is reported as -0.445. RRIRSRPPRLPRPRPRPILHPRP was tested, and the “shrunken log2 fold change” value was -0.159. For RRIRSRPPRLPRPRPRPILIPRP, the “shrunken log2 fold change” value was -0.384. RRIRSRPPRLPRPRPRPIMAPRP was tested, and the “shrunken log2 fold change” value was 0.163. RRIRSRPPRLPRPRPRPIMIPRP was tested, and the “shrunken log2 fold change” value was -0.426. With RRIRSRPPRLPRPRPRPINCPRP the “shrunken log2 fold change” value was -0.159. RRIRSRPPRLPRPRPRPINDPRP was tested, and the “shrunken log2 fold change” value was -0.113. RRIRSRPPRLPRPRPRPINVPRP was tested, and the “shrunken log2 fold change” value was -0.418. With RRIRSRPPRLPRPRPRPIQTPRP the “shrunken log2 fold change” value was -0.0822. In the case of RRIRSRPPRLPRPRPRPIQWPRP, the “shrunken log2 fold change” value is reported as 0.268. RRIRSRPPRLPRPRPRPIRSPRP was tested, and the “shrunken log2 fold change” value was 0.0127. With RRIRSRPPRLPRPRPRPIWAPRP the “shrunken log2 fold change” value was -0.133. RRIRSRPPRLPRPRPRPKDDPRP was tested, and the “shrunken log2 fold change” value was 0.0557. For RRIRSRPPRLPRPRPRPKEVPRP, the “shrunken log2 fold change” value was -0.00238. In the case of RRIRSRPPRLPRPRPRPKFFPRP, the “shrunken log2 fold change” value is reported as 0.113. For RRIRSRPPRLPRPRPRPKFNPRP, the “shrunken log2 fold change” value was -0.573. RRIRSRPPRLPRPRPRPKFWPRP was tested, and the “shrunken log2 fold change” value was 0.759. With RRIRSRPPRLPRPRPRPKHEPRP the “shrunken log2 fold change” value was 0.076. In the case of RRIRSRPPRLPRPRPRPKIRPRP, the “shrunken log2 fold change” value is reported as -0.177. With RRIRSRPPRLPRPRPRPKLMPRP the “shrunken log2 fold change” value was -0.125. RRIRSRPPRLPRPRPRPKMNPRP was tested, and the “shrunken log2 fold change” value was -0.163. For RRIRSRPPRLPRPRPRPKMYPRP, the “shrunken log2 fold change” value was -0.0737. In the case of RRIRSRPPRLPRPRPRPKQDPRP, the “shrunken log2 fold change” value is reported as 0.0172. RRIRSRPPRLPRPRPRPKQPPRP was tested, and the “shrunken log2 fold change” value was 0.0683. RRIRSRPPRLPRPRPRPKSGPRP was tested, and the “shrunken log2 fold change” value was 0.0485. With RRIRSRPPRLPRPRPRPKVNPRP the “shrunken log2 fold change” value was -0.333. In the case of RRIRSRPPRLPRPRPRPKWDPRP, the “shrunken log2 fold change” value is reported as 0.172. With RRIRSRPPRLPRPRPRPKWWPRP the “shrunken log2 fold change” value was 0.0275. RRIRSRPPRLPRPRPRPKYQPRP was tested, and the “shrunken log2 fold change” value was -0.157. RRIRSRPPRLPRPRPRPKYWPRP was tested, and the “shrunken log2 fold change” value was -0.166. With RRIRSRPPRLPRPRPRPLAKPRP the “shrunken log2 fold change” value was 0.358. RRIRSRPPRLPRPRPRPLCVPRP was tested, and the “shrunken log2 fold change” value was -0.143. For RRIRSRPPRLPRPRPRPLGMPRP, the “shrunken log2 fold change” value was -0.243. For RRIRSRPPRLPRPRPRPLHGPRP, the “shrunken log2 fold change” value was 0.0705. With RRIRSRPPRLPRPRPRPLHHPRP the “shrunken log2 fold change” value was -0.465. With RRIRSRPPRLPRPRPRPLKHPRP the “shrunken log2 fold change” value was -0.39. For RRIRSRPPRLPRPRPRPLMTPRP, the “shrunken log2 fold change” value was 0.653. With RRIRSRPPRLPRPRPRPLNKPRP the “shrunken log2 fold change” value was -0.343. For RRIRSRPPRLPRPRPRPLNSPRP, the “shrunken log2 fold change” value was -0.327. With RRIRSRPPRLPRPRPRPLPGPRP the “shrunken log2 fold change” value was 0.0761. With RRIRSRPPRLPRPRPRPLQLPRP the “shrunken log2 fold change” value was -0.456. For RRIRSRPPRLPRPRPRPLRKPRP, the “shrunken log2 fold change” value was 0.383. RRIRSRPPRLPRPRPRPLRLPRP was tested, and the “shrunken log2 fold change” value was 0.54. RRIRSRPPRLPRPRPRPLRWPRP was tested, and the “shrunken log2 fold change” value was 0.776. With RRIRSRPPRLPRPRPRPLSAPRP the “shrunken log2 fold change” value was 0.234. With RRIRSRPPRLPRPRPRPLSCPRP the “shrunken log2 fold change” value was 0.0284. RRIRSRPPRLPRPRPRPLSRPRP was tested, and the “shrunken log2 fold change” value was 0.0301. With RRIRSRPPRLPRPRPRPLTFPRP the “shrunken log2 fold change” value was 0.182. With RRIRSRPPRLPRPRPRPLVCPRP the “shrunken log2 fold change” value was 0.0734. For RRIRSRPPRLPRPRPRPLVFPRP, the “shrunken log2 fold change” value was -0.0421. In the case of RRIRSRPPRLPRPRPRPLWCPRP, the “shrunken log2 fold change” value is reported as 0.148. In the case of RRIRSRPPRLPRPRPRPMAWPRP, the “shrunken log2 fold change” value is reported as -0.00175. For RRIRSRPPRLPRPRPRPMAYPRP, the “shrunken log2 fold change” value was -0.0939. In the case of RRIRSRPPRLPRPRPRPMCHPRP, the “shrunken log2 fold change” value is reported as -0.576. RRIRSRPPRLPRPRPRPMCSPRP was tested, and the “shrunken log2 fold change” value was -0.0814. In the case of RRIRSRPPRLPRPRPRPMDAPRP, the “shrunken log2 fold change” value is reported as -0.0809. With RRIRSRPPRLPRPRPRPMEFPRP the “shrunken log2 fold change” value was 0.00489. RRIRSRPPRLPRPRPRPMFNPRP was tested, and the “shrunken log2 fold change” value was -0.258. For RRIRSRPPRLPRPRPRPMFVPRP, the “shrunken log2 fold change” value was -0.0773. RRIRSRPPRLPRPRPRPMGHPRP was tested, and the “shrunken log2 fold change” value was -0.256. RRIRSRPPRLPRPRPRPMHRPRP was tested, and the “shrunken log2 fold change” value was 0.0682. RRIRSRPPRLPRPRPRPMISPRP was tested, and the “shrunken log2 fold change” value was -0.453. With RRIRSRPPRLPRPRPRPMKCPRP the “shrunken log2 fold change” value was 0.235. For RRIRSRPPRLPRPRPRPMKEPRP, the “shrunken log2 fold change” value was -0.338. In the case of RRIRSRPPRLPRPRPRPMKSPRP, the “shrunken log2 fold change” value is reported as 0.328. With RRIRSRPPRLPRPRPRPMLAPRP the “shrunken log2 fold change” value was 0.244. With RRIRSRPPRLPRPRPRPMLIPRP the “shrunken log2 fold change” value was -0.131. For RRIRSRPPRLPRPRPRPMMEPRP, the “shrunken log2 fold change” value was 0.0765. RRIRSRPPRLPRPRPRPMMLPRP was tested, and the “shrunken log2 fold change” value was 0.15. In the case of RRIRSRPPRLPRPRPRPMMVPRP, the “shrunken log2 fold change” value is reported as -0.203. In the case of RRIRSRPPRLPRPRPRPMMWPRP, the “shrunken log2 fold change” value is reported as 0.598.
